# Data: article PMC7829508, “Binding of Campylobacter jejuni FliW Adjacent to the CsrA RNA-Binding Pockets Modulates CsrA Regulatory Activity” (Frontiers in Microbiology, 2020)
# Changes are numbered by the printed parent chain. Names may count otherwise.
# T1: FliW-His6 (C. jejuni, UniProt Q0P9H9 1-129)
# T1 construct: FliW of Campylobacter jejuni, fliW cloned into pET-20b(+) (pET-20b-FliW-His6, Li et al., 2018); also called C. jejuni FliW
# T1 sequence (looked up): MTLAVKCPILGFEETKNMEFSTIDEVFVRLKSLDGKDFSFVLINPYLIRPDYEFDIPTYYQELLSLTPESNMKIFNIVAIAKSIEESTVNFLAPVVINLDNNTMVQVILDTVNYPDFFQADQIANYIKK
# B1: CsrA-WT-His6 (natural protein, C. jejuni 81-176, UniProt P0DPD4 1-75, looked up)
# chain: MLILSRKENESIIIGEGIEIKVVQTGKGYAKIGIEAPKSLMILRKELVQQVKDENLHSVVQNDIKLDDLSKKLIK
# notes: CsrA of Campylobacter jejuni, 75 amino acids; csrA cloned into pET-20b(+) (pET-20b-CsrA-His6, Fields et al., 2016); also called CsrA-His6; source: purified as described previously (El Abbar et al., 2019); not shown: His6, C-terminal, kept
# B2: CsrA-V51A-His6 (natural protein, C. jejuni 81-176, UniProt P0DPD4 1-75, looked up)
# chain: B1 chain with V51A
# notes: CsrA of Campylobacter jejuni, 75 amino acids, with V51A; point mutation cloned into pET20b (El Abbar et al., 2019); source: purified as described previously (El Abbar et al., 2019); not shown: His6, C-terminal, kept
# What was measured:
# FliW-His6 (C. jejuni) = FliW-His6 (C. jejuni) (UniProt Q0P9H9); assay: SPR; BIAcore T100; FliW-His6 amine-coupled to CM5 chip; CsrA-His6 injected at 0-500 nM, 30 μL/min, 180 s association, 600 s dissociation; 20 mM phosphate buffer, 0.05% Tween 20, pH 7.4; bivalent analyte model, constant of the first binding event (KD1)
# FliW-His6 = target: T1, FliW-His6; assay: as above; conditions: both partners purified
Molecule,"KD of the first ligand binding site (KD1, bivalent analyte model) (FliW-His6 (C. jejuni))","KD of the first ligand binding site (KD1, bivalent analyte model) (FliW-His6)"
CsrA-N55A-His6 (from UniProt P0DPD4 1-75) (natural protein),93 nM,–
B1,–,9 nM
B2,–,52 nM
